The values that follow come from patent US7202212 (BETH ISRAEL DEACONESS MEDICAL CENTER, dated 2007).

The target in this assay is T1, mouse α7 subunit of the 20S proteasome, full length (mouse, UniProt O70435 1-255).
T1 construct: also called a7; full length a7 construct
T1 sequence (looked up): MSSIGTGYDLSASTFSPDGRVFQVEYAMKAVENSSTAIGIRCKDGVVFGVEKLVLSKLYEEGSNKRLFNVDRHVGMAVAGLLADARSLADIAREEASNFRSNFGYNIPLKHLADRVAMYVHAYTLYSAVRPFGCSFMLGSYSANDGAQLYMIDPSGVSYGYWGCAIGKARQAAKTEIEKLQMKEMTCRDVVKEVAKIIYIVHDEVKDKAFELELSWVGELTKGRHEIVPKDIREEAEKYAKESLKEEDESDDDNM
Nature of the assay: yeast two-hybrid screen of a mouse cDNA library with PR-39 exon 4 as bait. As to the method: To identify possible intracellular targets of PR-39 peptide action, a yeast two-hybrid screen of mouse cDNA library was performed using the unique 4th exon DNA sequence of porcine PR-39 gene as "bait". […] All four clones encoded overlapping identical cDNA sequences which are highly homologous to the sequence of the human α7 (HC8) subunit of the 20S proteasome (GeneBank accession AF055983).

B1: porcine PR-39 peptide (4th exon, amino acids 131 to 169) in pAS2-1 vector as yeast two-hybrid bait (peptide, not shown: large carriers)
chain: RRRPRPPYLPRPRPPPFFPPRLPPRIPPGFPPRFPPRFP
notes: Bait of the yeast two-hybrid assay; The 39 residues are amino acids 131 to 169 of the porcine precursor; also called PR-39 construct
On to B1, for which the binding result was “binds”.
